Patent US20240269276A1 (HARBOUR BIOMED SHANGHAI, published 2024)
Changes are numbered by the printed parent chain.

T1: human CD73 on CHO-K1 cells overexpressing human CD73 (human, UniProt P21589 27-549)
T1 construct: whole, on cells; also called CHO-K1-hCD73
T1 sequence (looked up): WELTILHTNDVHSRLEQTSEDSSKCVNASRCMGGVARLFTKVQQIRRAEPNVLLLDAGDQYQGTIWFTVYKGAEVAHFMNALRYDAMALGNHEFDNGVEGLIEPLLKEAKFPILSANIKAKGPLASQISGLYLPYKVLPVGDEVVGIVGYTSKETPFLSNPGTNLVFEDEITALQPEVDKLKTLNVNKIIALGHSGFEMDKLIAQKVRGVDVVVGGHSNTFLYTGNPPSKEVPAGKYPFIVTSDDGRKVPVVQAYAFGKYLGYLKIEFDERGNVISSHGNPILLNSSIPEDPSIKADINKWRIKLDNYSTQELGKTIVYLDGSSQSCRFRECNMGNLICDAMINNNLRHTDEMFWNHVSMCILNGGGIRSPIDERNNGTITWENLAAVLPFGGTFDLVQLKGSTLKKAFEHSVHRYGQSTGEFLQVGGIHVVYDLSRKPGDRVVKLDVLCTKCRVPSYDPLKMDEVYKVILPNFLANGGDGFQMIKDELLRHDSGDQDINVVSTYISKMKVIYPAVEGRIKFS

B1: PR003836 (antibody, human IgG1, kappa, L234A L235A, V domains shown)
VH: QVQLVESGGGVVQPGRSLRLSCAASGFTFSSYDMHWVRQAPGKGLEWVASTWYDASKKYYADSVKGRFTISRDNSKNTLYLQMNSLRAEDTAVYYCAKGGDLLTGPNAFDIWGQGTMVTVSS
VL: DIQMTQSPSTLSASVGDRVTITCRASQSISSWLAWYQQKPGKAPKLLIYKASSLESGVPSRFSGSGSGTEFTLTISSLQPDDFATYYCQQYDNYENTFGQGTKLEIKR
notes: Anti-CD73 IgG (human IgG1 constant region, human Ig kappa), PTM removed; also called anti-CD73 antibody PR003836; anti-CD73 H2L2 antibody
B2: PR001408 (antibody, human IgG1, kappa, L234A L235A, V domains shown)
VH: QVQLVESGGGVVQPGRSLRLSCAASGFTFYSYGMHWVRQTPGKGLEWVALIWYDGSNNYYADSVKGRFTISRDNSKNTLYLQMNSLRAEDTAVYYCATERSSSFYYYYGMDVWGQGTTVTVSS
VL: DIQLTQSPSFLSTSVGDRVTITCRASQGISSYLAWYQQKPGKAPKLLIYAASTLQSGVPSRFSGSGSGTEFTLTISSLQPEDFATYYCQQLNSYPYTFGQGTELEIKR
notes: Anti-CD73 IgG (human IgG1 constant region, human Ig kappa), PTM removed; also called anti-CD73 antibody PR001408; anti-CD73 H2L2 antibody
B3: PR005867 (antibody, human IgG1, V domains shown)
VH: QVQLVESGGGVVQPGMSLRLSCAASGFTFSSYGMYWVRQAPGKGQEWVAIIWYDGTKKHYADSVKGRFTISRDNSKNTLYLEMNSLRVEDTAVYYCAKNRAIFGVIPDDSDIRGQGTMVTVSS
notes: The HC entry is used
B4: PR005868 (antibody, human IgG1, V domains shown)
VH: B3 VH with I102L, D109A
notes: The HC entry is used
B5: PR005869 (antibody, human IgG1, V domains shown)
VH: B3 VH with I102L
notes: The HC entry is used
B6: PR006245 (antibody, human IgG1, V domains shown)
VH: B3 VH with T28D, I50S, W52R, D54T, K57E, I106V, D109A
notes: The HC entry is used
B7: PR006247 (antibody, human IgG1, V domains shown)
VH: B3 VH with T28D, I50S, W52R, D54T, K57E, I102L, D109A
notes: The HC entry is used
B8: PR004295 (bispecific antibody, human IgG1, kappa, L234A L235A)
heavy: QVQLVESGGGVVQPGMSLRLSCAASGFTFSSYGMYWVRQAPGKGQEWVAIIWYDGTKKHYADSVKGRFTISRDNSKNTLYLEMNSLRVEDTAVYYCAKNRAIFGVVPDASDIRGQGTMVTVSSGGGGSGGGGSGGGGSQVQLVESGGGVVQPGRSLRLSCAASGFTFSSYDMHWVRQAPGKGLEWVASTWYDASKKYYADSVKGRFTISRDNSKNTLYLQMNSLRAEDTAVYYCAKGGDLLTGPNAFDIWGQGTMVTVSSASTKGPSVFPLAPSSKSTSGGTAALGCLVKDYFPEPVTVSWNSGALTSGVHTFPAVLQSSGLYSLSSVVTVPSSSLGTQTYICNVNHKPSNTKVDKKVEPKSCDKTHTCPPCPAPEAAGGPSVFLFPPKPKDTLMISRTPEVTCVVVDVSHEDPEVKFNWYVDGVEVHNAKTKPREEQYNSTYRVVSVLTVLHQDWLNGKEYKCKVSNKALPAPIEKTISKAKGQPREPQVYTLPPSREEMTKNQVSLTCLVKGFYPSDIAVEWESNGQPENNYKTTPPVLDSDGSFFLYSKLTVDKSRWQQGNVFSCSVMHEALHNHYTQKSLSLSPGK
light: DIQMTQSPSTLSASVGDRVTITCRASQSISSWLAWYQQKPGKAPKLLIYKASSLESGVPSRFSGSGSGTEFTLTISSLQPDDFATYYCQQYDNYENTFGQGTKLEIKRTVAAPSVFIFPPSDEQLKSGTASVVCLLNNFYPREAKVQWKVDNALQSGNSQESVTEQDSKDSTYSLSSTLTLSKADYEKHKVYACEVTHQGLSSPVTKSFNRGEC
notes: light chain of PR003836; also called CD73×PD-L1 bispecific antibody PR004295
B9: PR003739 (bispecific antibody, human IgG1, kappa, L234A L235A)
heavy: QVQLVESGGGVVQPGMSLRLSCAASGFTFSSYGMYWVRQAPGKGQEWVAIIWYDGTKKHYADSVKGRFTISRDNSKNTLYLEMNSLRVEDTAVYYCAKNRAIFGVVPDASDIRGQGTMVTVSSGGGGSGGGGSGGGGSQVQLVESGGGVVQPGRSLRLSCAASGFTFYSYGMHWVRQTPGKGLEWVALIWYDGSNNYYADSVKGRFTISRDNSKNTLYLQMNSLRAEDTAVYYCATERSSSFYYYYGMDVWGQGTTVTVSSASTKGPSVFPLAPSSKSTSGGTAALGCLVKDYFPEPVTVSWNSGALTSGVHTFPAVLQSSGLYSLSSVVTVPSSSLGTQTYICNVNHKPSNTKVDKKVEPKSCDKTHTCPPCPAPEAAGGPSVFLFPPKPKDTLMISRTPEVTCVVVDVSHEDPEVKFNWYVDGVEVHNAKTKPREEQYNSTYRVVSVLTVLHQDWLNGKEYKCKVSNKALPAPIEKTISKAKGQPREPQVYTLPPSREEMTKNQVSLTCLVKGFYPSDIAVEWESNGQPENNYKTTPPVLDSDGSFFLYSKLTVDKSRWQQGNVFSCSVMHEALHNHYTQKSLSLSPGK
light: DIQLTQSPSFLSTSVGDRVTITCRASQGISSYLAWYQQKPGKAPKLLIYAASTLQSGVPSRFSGSGSGTEFTLTISSLQPEDFATYYCQQLNSYPYTFGQGTELEIKRTVAAPSVFIFPPSDEQLKSGTASVVCLLNNFYPREAKVQWKVDNALQSGNSQESVTEQDSKDSTYSLSSTLTLSKADYEKHKVYACEVTHQGLSSPVTKSFNRGEC
notes: light chain of PR001408; also called CD73×PD-L1 bispecific antibody PR003739

Columns and labels:
[1] = target: T1, human CD73 on CHO-K1 cells …; assay: flow cytometry on CHO-K1 cells overexpressing human CD73 (CHO-K1-hCD73)
Method: (§1) In order to investigate the binding activity of the CD73×PD-L1 bispecific antibody to human CD73 and PD-L1, the binding experiment at the cellular level was performed using CHO-K1 cell strains overexpressing human CD73 or PD-L1 (CHO-K1-hCD73 or CHO-K1-hPD-L1). Briefly, the CHO-K1-hCD73 and CHO-K1-hPD-L1 cells were digested and resuspended in an F-12K complete medium, and the cell density was adjusted to 1×10⁶ cells/mL. The cells were seeded in a 96-well V-bottom plate (Corning, #3894) at 100 μL/well, followed by the addition at 100 μL/well and centrifugation at 500 g at 4° C. for 5 min, and then the supernatant was discarded. Antibodies were 3-fold diluted to a maximum final concentration of 50 nM, and a total of 8 concentrations were set. 100 μL of the diluted antibodies was added to the cells, and the cells were incubated away from light at 4° C for 1 h. Thereafter, the cells in each well were rinsed twice with 100 μL of pre-cooled PBS, and centrifuged at 500 g at 4° C. for 5 min, and then the supernatant was discarded. Then 100 μL of a fluorescent secondary antibody (goat anti-human IgG (H+L) secondary antibody, Alexa Fluor® 488 conjugate, Invitrogen, #A11013, diluted at the ratio of 1:1000) was added to each well. The plate was incubated away from light at 4° C. for 30 min. The cells in each well were then rinsed twice with 200 μL of pre-cooled PBS and centrifuged at 500 g at 4° C. for 5 min, and then the supernatant was discarded. Finally, the cells in each well were resuspended in 200 μL of pre-cooled PBS, and the fluorescence signal values were read using a BD FACS CANTOII.

[2] = target: T2, cynomolgus monkey PD-L1 on CHO-K1 cells overexpressing cynomolgus monkey PD-L1 (cynomolgus monkey, UniProt G7PSE7 19-290); assay: flow cytometry on CHO-K1/cynoPD-L1 cells
T2 construct: also called CHO-K1/cynoPD-L1; GenScript M00573
T2 sequence (G7PSE7 entry or part of it limits assumed): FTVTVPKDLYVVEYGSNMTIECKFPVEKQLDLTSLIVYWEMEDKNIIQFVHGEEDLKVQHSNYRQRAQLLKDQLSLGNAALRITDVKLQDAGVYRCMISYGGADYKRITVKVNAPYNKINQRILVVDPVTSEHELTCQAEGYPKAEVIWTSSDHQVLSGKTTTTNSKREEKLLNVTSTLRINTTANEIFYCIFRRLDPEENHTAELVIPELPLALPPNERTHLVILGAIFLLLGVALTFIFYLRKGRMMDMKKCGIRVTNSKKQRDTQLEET
Method: (§2) In the example, in order to study the in vitro binding activity of the PD-L1 antigen-binding protein to human/cynomolgus monkey PD-L1, cell-level binding experiments were performed using CHO-K1 cell strains overexpressing human PD-L1 (CHO-K1/hPD-L1, GenScript, M00543) or CHO-K1 cell strains overexpressing cynomolgus monkey PD-L1 (CHO-K1/cynoPD-L1, GenScript, M00573). Briefly, the PD-L1 cells were digested and resuspended in an F-12K complete medium, and the cell density was adjusted to 1×10⁶ cells/mL. The cells were seeded in a 96-well V-bottom plate (Corning, 3894) at 100 μL/well, followed by the addition of the test antigen-binding proteins serially diluted 5-fold with concentrations that were twice the final concentrations at 100 μL/well. The mixtures were well mixed. The highest final concentration of the antigen-binding proteins was 100 nM. A total of 8 concentrations were set. An isotype antibody hIgG1 iso was used as a control. The cells were incubated away from light at 4° C. for 1 h. Thereafter, the cells in each well were rinsed twice with 100 μL of pre-cooled PBS, and centrifuged at 500 g at 4° C. for 5 min, and then the supernatant was discarded. Then 100 μL of a fluorescent secondary antibody (goat anti-human IgG (H+L) secondary antibody, Alexa Fluor 488 conjugate, Invitrogen, A11013, diluted at the ratio of 1:1000) was added to each well. The plate was incubated away from light at 4° C. for 30 min. The cells in each well were then rinsed twice with 200 μL of pre-cooled PBS and centrifuged at 500 g at 4° C. for 5 min, and then the supernatant was discarded. Finally, a pre-cooled PBS was added at 200 μL/well to resuspend the cells. Fluorescence signal values were read using a BD FACS CANTOII. Fluorescence signal values were read using a flow cytometer BD FACS CANTOII or FACS ACEA, and the data were processed and analyzed using FlowJo v10 (FlowJo, LLC) software. The data were processed and analyzed by plotting using GraphPad Prism 8 software, and binding curves, EC50 values and other parameters were acquired through four-parameter nonlinear fitting.

[3] = target: T3, human PD-L1 on CHO-K1 cells overexpressing human PD-L1 (human, UniProt Q9NZQ7 19-290); assay: flow cytometry on CHO-K1 cells overexpressing human PD-L1 (CHO-K1/hPD-L1) [continued) E]
T3 construct: whole, on cells; also called CHO-K1/hPD-L1; CHO-K1-hPD-L1
T3 sequence (Q9NZQ7 19-290): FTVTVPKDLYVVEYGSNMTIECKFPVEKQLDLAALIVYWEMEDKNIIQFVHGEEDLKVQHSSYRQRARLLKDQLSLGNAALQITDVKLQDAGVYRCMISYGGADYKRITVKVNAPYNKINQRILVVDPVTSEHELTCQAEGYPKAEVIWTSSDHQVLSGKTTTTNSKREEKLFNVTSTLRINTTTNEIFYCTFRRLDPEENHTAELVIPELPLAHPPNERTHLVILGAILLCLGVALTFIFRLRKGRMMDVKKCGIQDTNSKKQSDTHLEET
Method: as §2

[4] = target: T4, human PD-L1 protein with histidine tag (ACROBiosystems #PD-1-H5258) (human, UniProt Q9NZQ7 19-238); assay: BLI (Octet Red96e); His-tagged human PD-L1 captured on HIS1K sensor, antibody at 60 nM; 1:1 fit
T4 construct: Bought protein; also called His PD-L1; human PD-L1 proteins; not shown: histidine tag
T4 sequence (Q9NZQ7 19-238 limits assumed): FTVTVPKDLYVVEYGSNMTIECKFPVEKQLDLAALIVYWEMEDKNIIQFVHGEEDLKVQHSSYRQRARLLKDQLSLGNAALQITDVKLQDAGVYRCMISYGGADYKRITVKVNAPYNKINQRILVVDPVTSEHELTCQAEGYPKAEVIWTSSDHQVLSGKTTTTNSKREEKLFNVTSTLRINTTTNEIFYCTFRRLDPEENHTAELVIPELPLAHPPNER
Method: In this example, affinity determination was performed on the affinity-matured mutants of PR002082 using an Octet Red96e instrument. […] The binding kinetics between the antigen and the antibody was analyzed by the biolayer interferometry (BLI) technique using an Octet molecular interaction analyzer (ForteBio, model: Octet Red96e).
When the affinity of the antigen for the antibody was determined, the rotation speed of the sensor was set at 1000 rpm/min. The 2 HIS1K sensors placed in a column were first equilibrated for 10 min in test buffer, then His PD-L1 was captured with the HIS1K sensor at a capture height of 0.9-1.1 nm, then the HIS1K sensor was equilibrated for 2 min in the test buffer, then the HIS1K sensor was bound to the antigen-binding protein (60 nM and 0 nM) for 3 min, and finally the mixture was dissociated for 15 min. The HIS1K sensor was immersed in a 10 mM glycine solution (pH 1.5) for regeneration to elute the proteins bound to the sensor.
When data analysis was performed using Octet Data Analysis software (Fortebio, version 11.0), the reference signals were subtracted by a single reference mode (reference well), the data were fitted by a “1:1 Local/full fitting” method, and the kinetic parameters of the binding of the antigen to the antibody were calculated to obtain Kₒₙ (1/Ms) values, Kdis (1/s) values and KD (M) values.

[5] = target: T3, human PD-L1 on CHO-K1 cells …; assay: flow cytometry on CHO-K1 cells overexpressing human PD-L1 (CHO-K1/hPD-L1) [continued) F]
Method: as §2

[6] = target: T3, human PD-L1 on CHO-K1 cells …; assay: flow cytometry on CHO-K1 cells overexpressing human PD-L1 (CHO-K1-hPD-L1) [continued) F]
Method: as §1, with “The plate was incubated away from light at 4° C. for 30 min. The cells in each well were then rinsed twice with 200 μL of pre-cooled PBS and centrifuged at 500 g at 4° C. for 5 min, and then the supernatant was discarded.” left out

[7] = target: T3, human PD-L1 on CHO-K1 cells …; assay: flow cytometry on CHO-K1 cells overexpressing human PD-L1 (CHO-K1-hPD-L1) [continued) E]
Method: as §1, with “The plate was incubated away from light at 4° C. for 30 min. The cells in each well were then rinsed twice with 200 μL of pre-cooled PBS and centrifuged at 500 g at 4° C. for 5 min, and then the supernatant was discarded.” left out

| Binder | EC50 [1] [nM] | binding result [2] | EC50 [3] [nM] | Maximum MFI [3] [MFI] | Kd [4] [nM] | koff [4] [s⁻¹] | kon [4] [M⁻¹ s⁻¹] | EC50 [5] [nM] | Maximum MFI [5] [MFI] | EC50 [6] [nM] | EC50 [7] [nM] |
| --- | --- | --- | --- | --- | --- | --- | --- | --- | --- | --- | --- |
| B1 | 1.1 | – | – | – | – | – | – | – | – | – | – |
| B2 | 0.342 | – | – | – | – | – | – | – | – | – | – |
| B3 | – | binds | 1.14 | 388000 | 1.85 | 0.000468 | 253000 | – | – | – | – |
| B4 | – | binds | 1.06 | 393000 | 1.92 | 0.000386 | 201000 | – | – | – | – |
| B5 | – | binds | 1.13 | 393000 | 1.09 | 0.000262 | 241000 | – | – | – | – |
| B6 | – | binds | – | – | 1.09 | 0.000162 | 149000 | 0.964 | 405000 | – | – |
| B7 | – | binds | – | – | 1.18 | 0.000219 | 185000 | 1.01 | 410000 | – | – |
| B8 | 2.09 | – | – | – | – | – | – | – | – | 2.17 | – |
| B9 | 0.99 | – | – | – | – | – | – | – | – | – | 1.66 |
